We go through five molecules from PMC6698652, “Boundaries of eliminated heterochromatin of Tetrahymena are positioned by the DNA-binding protein Ltl1”.

Data set [1] concerns the target T1, MBP-Ltl1 (Tetrahymena thermophila) (UniProt I7MGR7).
T1 sequence: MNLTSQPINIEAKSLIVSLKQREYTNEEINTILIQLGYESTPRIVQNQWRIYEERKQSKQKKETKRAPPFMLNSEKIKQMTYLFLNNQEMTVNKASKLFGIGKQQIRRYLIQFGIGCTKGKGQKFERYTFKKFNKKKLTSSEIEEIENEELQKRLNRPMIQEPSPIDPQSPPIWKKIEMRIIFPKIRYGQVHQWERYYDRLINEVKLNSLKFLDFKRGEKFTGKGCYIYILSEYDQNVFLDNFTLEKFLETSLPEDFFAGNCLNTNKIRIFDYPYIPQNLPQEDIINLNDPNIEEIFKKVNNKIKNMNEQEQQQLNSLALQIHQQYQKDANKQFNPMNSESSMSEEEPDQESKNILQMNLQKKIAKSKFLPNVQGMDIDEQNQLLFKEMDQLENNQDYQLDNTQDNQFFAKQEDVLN
As to the kind of experiment: EMSA. As to conditions: EMSA as in Carle et al. (ref 20), binding buffer and temperature not given; probes annealed in 10 mM Tris pH 7.5, 5% glycerol, 100 mM KCl; protein dialyzed in …. In general terms: In EMSA bound probe runs differently from free probe, usually more slowly.

The target of data set [2] is T2, MBP-Ltl1 (Tetrahymena thermophila, UniProt I7MGR7 1-417).
T2 sequence: T1 sequence
As to the kind of experiment: EMSA; EMSA as in Carle et al. (ref 20), binding buffer and temperature not given; probes annealed in 10 mM Tris pH 7.5, 5% glycerol, 100 mM KCl; protein dialyzed in 50 mM Tris pH 7.5, 100 mM KCl, 10% glycerol, 1 mM MnSO4, 1 mM MgCl2, 1 mM ZnSO4. As to conditions: protein: recombinant; MBP (pMAL fusion); label: 5' 32P; blunt.

Data set [3] concerns the target T2, MBP-Ltl1. As to the kind of experiment: EMSA; majority of probe in G-quadruplex form; EMSA as in Carle et al. (ref 20), binding buffer and temperature not given; probes annealed in 10 mM Tris pH 7.5, 5% glycerol, 100 mM KCl; protein dialyzed in 50 mM Tris pH 7.5, 100 mM KCl, 10% glycerol, 1 mM MnSO4, 1 mM MgCl2, 1 mM ZnSO4. As to conditions: protein: recombinant; MBP (pMAL fusion); label: 5' 32P.

The Kd is the constant that tells how readily two partners part at equilibrium.

In data set [1], “TTATTTGATTAATTAATTTTATTTACGGTAAAGGTTTATATATTAAGGCCACAATATAC (double strand) [D IES left flank -30/-88 ds (IESD_EMSA_probe1)]” came in with a Kd of 350 nM. The same measure, in the same setting: the figure for “GAAATTAATATAATTATAATTTTAAACAGTGTAAAACCCAAAAAGCTA (double strand) [R IES left flank -40/-88 ds (R_IES_EMSA_probe2)]” is 350 nM.

B1: D IES right flank -67/-120 (IESD_EMSA_R-67/120) (dsDNA)
DNA 1: TTTGAATCCTAAGATTCTACTTTATTTAGCATTTTTTATATTAAGTAATTTA
DNA 2: TAAATTACTTAATATAAAAAATGCTAAATAAAGTAGAATCTTAGGATTCAAA
As for B1, in the data set with MBP-Ltl1 [2], the Kd was about 42.5 nM.

B2: D IES left flank -70/-120 (IESD_EMSA_L-70/120) (dsDNA)
DNA 1: AAAATTTATATATATTTGAATCCTAAGATTCTGTCTTATTTGATTAATTAA
DNA 2: TTAATTAATCAAATAAGACAGAATCTTAGGATTCAAATATATATAAATTTT
Turning to B2, in the data set with MBP-Ltl1 [2], the Kd was about 43 nM.

B3: M IES left flank G4 (M1_A5G5_FW) (structured_DNA)
DNA: TTTATTAATCAAAAAGGGGGTAAATAATAA
As for B3, the Kd with MBP-Ltl1 [3] was about 350 nM.
